Source: US20220127355A1 (INTEGRAL MOLECULAR, published 2022)
Numbering of substitutions follows the chain as printed.

B1: IM171 (antibody, V domains shown)
VH: AVTLDESGGGLQTPGGALSLVCKASGFDFSSYAMNWVRQAPGKGLEWVAGIGSTGSSTGYGPAVKGRATISRDNGQSTLRLQLNNLRAEDTAIYYCAKSVGNGNSWSGYIATSIDAWGHGTEVIVSS
VL: ALTQPSSVSANLGGTVKLTCSGGSSGYGWYQQKSPGSAPVTVIYSNDKRPSDIPSRFSGSLSGSTGTLTITGVQADDEAVYFCGSTDNSYVGIFGAGTTLTVL
notes: Detected with anti-human IgG Fc secondary; also called LM171
B2: IM173 (antibody, V domains shown)
VH: AVTLDESGGGLQTPGGALSLVCKASGFTFSSYSMFWVRRAPGKGLEWVAGIDSGSTTFYGSAVKGRATISRDNGQSTVRLQLNNLRAEDTATYYCAKDAYGYCGWSGCSADSIDAWGHGTEVIVSS
VL: ALTQPSSVSANPGGTVEITCSGGNNYYGWYQQKSPGSAPVTVIYYNDKRPSDIPSRFSGSKSGSTGTLTITGVQADDEAVYFCGGWDSSGGIFGAGTTLTVL
notes: Detected with anti-human IgG Fc secondary

How the values were obtained:
D76A = target: T1, D76A; assay: Shotgun Mutagenesis epitope mapping; mean (range), % of wild-type Claudin 6
T1 construct: Shotgun Mutagenesis mutant; also called Claudin 6 D76A
T1 chain: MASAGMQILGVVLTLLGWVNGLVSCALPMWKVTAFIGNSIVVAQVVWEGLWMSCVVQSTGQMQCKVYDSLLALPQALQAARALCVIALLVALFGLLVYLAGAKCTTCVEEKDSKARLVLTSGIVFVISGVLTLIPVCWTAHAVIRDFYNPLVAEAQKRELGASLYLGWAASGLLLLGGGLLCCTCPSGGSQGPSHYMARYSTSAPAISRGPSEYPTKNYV

D146A = target: T2, D146A; assay: as above
T2 construct: Shotgun Mutagenesis mutant; also called Claudin 6 D146A
T2 chain: T1 chain with A76D, D146A

Q156A = target: T3, Q156A; assay: as above
T3 construct: Shotgun Mutagenesis mutant; also called Claudin 6 Q156A
T3 chain: T1 chain with A76D, Q156A

Q156L = target: T4, Q156L; assay: as above
T4 construct: Shotgun Mutagenesis mutant; also called Claudin 6 Q156L
T4 chain: T1 chain with A76D, Q156L

R158A = target: T5, R158A; assay: as above
T5 construct: Shotgun Mutagenesis mutant; also called Claudin 6 R158A
T5 chain: T1 chain with A76D, R158A

V45A = target: T6, V45A; assay: as above
T6 construct: Shotgun Mutagenesis mutant; also called Claudin 6 V45A
T6 chain: T1 chain with V45A, A76D

E48A = target: T7, E48A; assay: as above
T7 construct: Shotgun Mutagenesis mutant; also called Claudin 6 E48A
T7 chain: T1 chain with E48A, A76D

D68A = target: T8, D68A; assay: as above
T8 construct: Shotgun Mutagenesis mutant; also called Claudin 6 D68A
T8 chain: T1 chain with D68A, A76D

Claudin 6 (human) = target: T9, Claudin 6 (human) (human, UniProt P56747 1-220); assay: flow cytometry, HEK-293T cells transiently transfected with human Claudin 6 (hsCLDN6); pUC = empty vector control
T9 construct: Expressed on transfected HEK-293T cells or naturally on PA-1 cells for flow cytometry; For the Octet KD values it was the intact protein embedded in virus-like particles (lipoparticles); also called hsCLDN6; CLDN6
T9 chain: T1 chain with A76D
Description: FIG. 1 illustrates the results of a binding assay showing that Claudin 6 MAbs bind to human Claudin 6. Human embryonic kidney 293T (HEK-293T) cells were transiently transfected with DNA for human Claudin 6 (hsCLDN6) or empty vector along with GFP (pUC) for 22 hours. Claudin 6 MAbs (IM136, IM171, IM172, and IM173) were added at serial dilutions (0.0-10 μg/mL) and incubated for 90 min with shaking. After a wash step, secondary antibody for detection (allophycocyanin-conjugated mouse anti-human IgG Fc; Southern Biotech) was added and incubated for 30-45 min. Cells were washed, and fluorescence was detected by high-throughput Intellicyt flow cytometry, with gating by graphing forward scatter against side scatter. Data were analyzed in GraphPad Prism software based on the geometric mean of fluorescence intensity for the cell population in each well.

| Binder | Binding Reactivity (% WT) (D76A) | Binding Reactivity (% WT) (D146A) | Binding Reactivity (% WT) (Q156A) | Binding Reactivity (% WT) (Q156L) | Binding Reactivity (% WT) (R158A) | Binding Reactivity (% WT) (V45A) | Binding Reactivity (% WT) (E48A) | Binding Reactivity (% WT) (D68A) | EC50 (read off the curve) (Claudin 6 (human)) [µg/mL] |
| --- | --- | --- | --- | --- | --- | --- | --- | --- | --- |
| B1 | 6 | 57.6 | 102 | 10 | 1.3 | 88.4 | 0.9 | 93.7 | ~0.4 |
| B2 | 76.8 | 119 | 0.9 | 10.7 | 3.6 | 76.1 | -0.5 | 89.6 | ~0.4 |
